US20240091360A1 (LENTIGEN TECHNOLOGY, published 2024)

Experiments:
[1] = target: T1, ROR1-Fc peptide (R&D System) (UniProt Q01973 30-403); assay: flow cytometry; transduced primary human T cells stained with ROR1-Fc, then anti-Fc Alexa Flour 647
T1 construct: Bought detection reagent (R&D Systems), detected with anti Fc-AF647; not shown: Fc part of the bought reagent, not described
Excerpt: Half million CAR T cells were washed in cold AutoMACS buffer supplemented with 0.5% bovine serum albumin (Miltenyi Biotec, Bergisch Gladbach, Germany) and stained with CAR detection reagents. For ROR CAR, cells were stained with ROR1-Fc peptide (R&D System, Minneapolis, MN), followed by anti Fc-AF647 conjugate(Jackson ImmunoResearch, West Grove, PA). For MSLN CAR, cells were stained with MSLN-His (R&D System, Minneapolis, MN) […] anti-His-APC (Miltenyi Biotec). The 7-Aminoactinomycin D staining (7-AAD, BD Biosciences, San Jose, CA) was added to exclude dead cells. CD4 antibody labeled with VioBlue fluorochrome or CD8 antibody labeled with VioGreen fluorochrome was used to separate CD4 and CD8 population. Non-transduced cells (UTD) were used as a negative control. Cells were washed twice, resuspended in 200 μl running buffer, and acquired by flow cytometry. Flow cytometric analysis was performed on a MACSQuant® 10 Analyzer (Miltenyi Biotec), and data plots were generated using FlowJo software (Ashland, OR).
ROR1 and MSLN mono CARs and tandem CARs without mIL7 were included as control (FIG. 2A). CAR sequences were further incorporated into a third-generation lentiviral vectors and transduced into human primary T cells at MOI 40, to generate the ROR1 and/or MSLN CAR T cells under the control of the mammalian EF-1α promoter. Un-transduced T cells derived from same donor (UTD) were used as negative control. Surface expression of CARs with ROR1 binder on transduced T cells was measured by flow cytometry using ROR1-Fc, followed by staining with anti-Fc Alexa Flour 647. CARs with MSLN scFv surface expression was detected by MSLN-His followed by anti-His APC. […] Quantified CAR positive percentage and mean fluorescence intensity (MFI) of ROR1 binders (FIG. 2B, 2D) and MSLN binders (FIG. 2C, 2E) were plotted as bar figure.

[2] = target: T2, ROR1.Fc (Sino Biologicals) (UniProt Q01973 30-403); assay: flow cytometry of transduced primary human T cells at day 8; ROR1.Fc and anti-human Fc.AF647 are the listed reagents
T2 construct: not shown: Fc part of the bought reagent, not described
T2 sequence (Q01973 30-403): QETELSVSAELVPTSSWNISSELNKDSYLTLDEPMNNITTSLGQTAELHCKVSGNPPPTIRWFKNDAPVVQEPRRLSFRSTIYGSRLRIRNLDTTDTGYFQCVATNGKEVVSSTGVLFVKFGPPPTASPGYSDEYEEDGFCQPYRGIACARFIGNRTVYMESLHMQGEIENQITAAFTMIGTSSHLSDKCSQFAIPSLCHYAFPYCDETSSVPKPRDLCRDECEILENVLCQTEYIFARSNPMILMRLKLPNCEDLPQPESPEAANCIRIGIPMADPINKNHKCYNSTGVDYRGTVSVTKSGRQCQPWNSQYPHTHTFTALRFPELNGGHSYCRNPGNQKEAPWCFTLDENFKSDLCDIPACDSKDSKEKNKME
Experimental: Flow cytometric analysis was performed as previously described (12, 15, 16). All cell staining reagents for flow cytometry were from Miltenyi Biotec, unless otherwise noted. These include anti-ROR1.AF647, mouse IgG1 control. APC, anti-CD45.PE, anti-CD8. Viogreen, anti-CD3.VioBlue, anti-CD45. VioBright FITC, anti-CD45RA. APC-Vio770, anti-CD62L.PE, anti-PD1.PE-Vio770, Streptavidin. PE (Miltenyi Biotec). Cell viability solution (7-AAD), BD Pharm Lysing buffer were purchased from BD Biosciences. Anti-ROR1.AF647 was from R&D systems. ROR1.Fc was from Sino Biologicals. Anti-human Fc.AF647 was from Jackson ImmunoResearch. Countbright absolute counting beads were from ThermoFisher Scientific. Anti-TGFβRII. Biotin was from Biolegend. Stained cells were analyzed using the MACSQuant Analyzer 10 flow cytometer (Miltenyi Biotec).

[3] = target: T3, CD276-His (Acro biosystems) (UniProt Q5ZPR3-2 29-245, limits assumed); assay: flow cytometry; transduced primary human T cells co-stained with ROR1-Fc and CD276-His, then anti-Fc and anti-His conjugates
T3 construct: Bought detection reagent, detected with anti-His PE
T3 sequence (looked up): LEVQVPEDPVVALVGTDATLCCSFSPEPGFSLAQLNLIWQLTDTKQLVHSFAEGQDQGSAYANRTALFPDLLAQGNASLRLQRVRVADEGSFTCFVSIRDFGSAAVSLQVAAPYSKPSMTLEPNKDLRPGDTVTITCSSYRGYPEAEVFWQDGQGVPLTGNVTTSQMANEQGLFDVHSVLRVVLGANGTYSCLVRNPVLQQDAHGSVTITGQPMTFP
Excerpt: Half million CAR T cells were washed in cold AutoMACS buffer supplemented with 0.5% bovine serum albumin (Miltenyi Biotec, Bergisch Gladbach, Germany) and stained with CAR detection reagents. For ROR1 CAR, cells were stained with ROR1-Fc peptide (R&D System, Minneapolis, MN), followed by anti Fc-AF647 conjugate(Jackson ImmunoResearch, West Grove, PA). For CD276 CAR or CCR, cells were stained with CD276-His (Acro biosystems, Newark, De), followed by anti-His PE (Miltenyi Biotech). The 7-Aminoactinomycin D staining (7-AAD, BD Biosciences, San Jose, CA) was added to exclude dead cells. CD4 antibody labeled with VioBlue was used to separate CD4 and CD8 population. Non-transduced cells (UTD) were used as a negative control. Cells were washed twice, resuspended in 200 μl running buffer, and acquired by flow cytometry. […]
CD276 specific targeting-scFvs were first evaluated in CAR context in vitro, ROR1 CAR was included as control. […] Surface expression of CD276 CARs with ROR1 binder on transduced T cells was measured by flow cytometry using CD276-His, followed by staining with anti-His PE. ROR1 CAR expression was determined as previously described. […] The target specific cytotoxicity of CD276 and/or ROR1 CARs was measured by luciferase based overnight killing assy. […]

[4] = target: T4, FolR1-Fc peptide (Acro Biosystems) (UniProt P15328 25-233); assay: flow cytometry; transduced primary human T cells stained with FolR1-Fc, then anti-Fc Alexa Flour 647
T4 construct: Bought detection reagent, detected with anti Fc-AF647; not shown: Fc part of the bought reagent, not described
T4 sequence (P15328 25-233): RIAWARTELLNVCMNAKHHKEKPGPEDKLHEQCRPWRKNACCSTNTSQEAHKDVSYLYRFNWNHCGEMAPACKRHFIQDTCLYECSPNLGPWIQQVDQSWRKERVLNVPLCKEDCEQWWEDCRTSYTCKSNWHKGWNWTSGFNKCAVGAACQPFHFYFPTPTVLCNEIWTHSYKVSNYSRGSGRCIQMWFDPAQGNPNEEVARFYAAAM
Excerpt: 0.32E6 CAR-T cells were washed in cold AutoMACS buffer supplemented with 0.5% bovine serum albumin (Miltenyi Biotec, Bergisch Gladbach, Germany) and stained with CAR detection reagents. For ROR CAR, cells were stained with ROR1-Fc peptide (R&D Systems, Minneapolis, MN) and FolR1 CAR were stained with FolR1-Fc peptide (Acro Biosystems, Newark, DE) followed by anti Fc-AF647 conjugate (Jackson ImmunoResearch, West Grove, PA). The 7-Aminoactinomycin D staining (7-AAD, BD Biosciences, San Jose, CA) was added to exclude dead cells. CD4 antibody labeled with VioBlue fluorochrome was used to separate CD4 and CD8 population. Processed mouse bone marrow and spleen were stained with human CD3 VioBlue and human CD45 FITC (Miltenyi Biotec) to determine the presence of CAR-T. To assess for memory phenotype, cells were stained with CD62L PE and CD45RA APC-Vio700 (Miltenyi Biotec). Non-transduced cells (UTD) were used as a negative control. Cells were washed twice, resuspended in 200 μl running buffer, and acquired by flow cytometry. […]
To test CAR-T functionality in vitro, ROR1 or FolR1 mono CARs with MMP-2, MMP-9, HPSE or PH-20 as booster elements were characterized. […] Surface expression of CARs with ROR1 or FolR1 binder on transduced T cells was measured by flow cytometry using ROR1-Fc or FolR1-Fc respectively, followed by staining with anti-Fc Alexa Flour 647.

T1 sequence (Q01973 30-403): as the sequence (Q01973 30-403) above

Binder	binding result [1]	binding result [2]	binding result [3]	binding result [4]
D0290 ROR1 scFv9-IgG4 hinge-CD8TM-41BB-CD3ζ (other, CAR on transduced primary human T cells; also called CAR D0290; mono ROR1 CAR; not shown: IgG4 hinge, CD8 TM, 4-1BB, CD3ζ) QAAQVQLQQSGAEVKKPGSSVKVSCKASGGTFSSYAISWVRQAPGQGLEWMGWINPNSGGTNYAQRFQGRVTMTRDTSISTAYMELSRLRSDDTAVYYCASYNDAFDIWGQGTLVTVSSGGGGSGGGGSGGGGSNFMLTQPHSVSESPGKTVTISCTRSSGSIASNYVQWYQQRPGSAPTIVIYEDDQRPSGVPDRFSGSIDTSSNSASLTISGLQSEDEADYYCQSYEPGNGVFGGGTKVTVL	binds	–	–	–
CAR LTG2529 ROR1scFv9 IgG4 CD8 BBz (other, Chimeric antigen receptor on lentivirally transduced primary human T cells; The entry includes the N-terminal leader peptide; also called ROR1 CAR LTG2529; ROR1-LTG2529) QAAQVQLQQSGAEVKKPGSSVKVSCKASGGTFSSYAISWVRQAPGQGLEWMGWINPNSGGTNYAQRFQGRVTMTRDTSISTAYMELSRLRSDDTAVYYCASYNDAFDIWGQGTLVTVSSGGGGSGGGGSGGGGSNFMLTQPHSVSESPGKTVTISCTRSSGSIASNYVQWYQQRPGSAPTIVIYEDDQRPSGVPDRFSGSIDTSSNSASLTISGLQSEDEADYYCQSYEPGNGVFGGGTKVTVLAAAESKYGPPCPPCPIYIWAPLAGTCGVLLLSLVITLYCKRGRKKLLYIFKQPFMRPVQTTQEEDGCSCRFPEEEEGGCELRVKFSRSADAPAYQQGQNQLYNELNLGRREEYDVLDKRRGRDPEMGGKPRRKNPQEGLYNELQKDKMAEAYSEIGMKGERRRGKGHDGLYQGLSTATKDTYDALHMQALPPR	binds	binds	no binding	–
CAR D0351 Farle CD8 BBz (other, FolR1 CAR (Farletuzumab scFv) on transduced primary human T cells, PGK promoter; also called Farle-CD8H&TM-41BB-CD3ζ; mono-FolR1 D0351) MEVQLVESGGGVVQPGRSLRLSCSASGFTFSGYGLSWVRQAPGKGLEWVAMISSGGSYTYYADSVKGRFAISRDNAKNTLFLQMDSLRPEDTGVYFCARHGDDPAWFAYWGQGTPVTVSSASTKGGGGGSGGGGSGGGGSDIQLTQSPSSLSASVGDRVTITCSVSSSISSNNLHWYQQKPGKAPKPWIYGTSNLASGVPSRFSGSGSGTDYTFTISSLQPEDIATYYCQQWSSYPYMYTFGQGTKVEIKRTAAATTTPAPRPPTPAPTIASQPLSLRPEACRPAAGGAVHTRGLDFACDIYIWAPLAGTCGVLLLSLVITLYCKRGRKKLLYIFKQPFMRPVQTTQEEDGCSCRFPEEEEGGCELRVKFSRSADAPAYQQGQNQLYNELNLGRREEYDVLDKRRGRDPEMGGKPRRKNPQEGLYNELQKDKMAEAYSEIGMKGERRRGKGHDGLYQGLSTATKDTYDALHMQALPPR	–	–	–	binds
CAR LTG2527 ROR1 IgG4 CD8 BBz (other, CAR on transduced primary human T cells; also called ROR1 R12 -IgG4 hinge-CD8TM-41BB-CD3ζ; R12-ROR1 LTG2527) QEQLVESGGRLVTPGGSLTLSCKASGFDFSAYYMSWVRQAPGKGLEWIATIYPSSGKTYYATWVNGRFTISSDNAQNTVDLQMNSLTAADRATYFCARDSYADDGALFNIWGPGTLVTISSGGGGSGGGGSGGGGSELVLTQSPSVSAALGSPAKITCTLSSAHKTDTIDWYQQLQGEAPRYLMQVQSDGSYTKRPGVPDRFSGSSSGADRYLIIPSVQADDEADYYCGADYIGGYVFGGGTQLTVTGAAAESKYGPPCPPCPIYIWAPLAGTCGVLLLSLVITLYCKRGRKKLLYIFKQPFMRPVQTTQEEDGCSCRFPEEEEGGCELRVKFSRSADAPAYQQGQNQLYNELNLGRREEYDVLDKRRGRDPEMGGKPRRKNPQEGLYNELQKDKMAEAYSEIGMKGERRRGKGHDGLYQGLSTATKDTYDALHMQALPPR	–	binds	–	–
CAR D0233 MSLN M1-4S ROR1 scFv9 IgG4 CD8 BBz (other, Tandem CAR on transduced primary human T cells; also called MSLN-ROR1 scFv9-IgG4 hinge-CD8TM-41BB-CD3ζ; tandem CAR D0233) EVQLVQSGGGLVQPGGSLRLSCAASGFTFDDYAMHWVRQAPGKGLEWVSGISWNSGSIGYADSVKGRFTISRDNAKNSLYLQMNSLRAEDTALYYCAKDLSSVAGPFNYWGQGTLVTVSSGGGGSGGGGSGGGGSSSELTQDPAVSVALGQTVRITCQGDSLRSYYASWYQQKPGQAPVLVIYGKNNRPSGIPDRFSGSSSGNTASLTITGAQAEDEADYYCNSRDSSGNHLVFGGGTQLTVLGGGGGSGGGGSGGGGSGGGGSGGGGSQAAQVQLQQSGAEVKKPGSSVKVSCKASGGTFSSYAISWVRQAPGQGLEWMGWINPNSGGTNYAQRFQGRVTMTRDTSISTAYMELSRLRSDDTAVYYCASYNDAFDIWGQGTLVTVSSGGGGSGGGGSGGGGSNFMLTQPHSVSESPGKTVTISCTRSSGSIASNYVQWYQQRPGSAPTIVIYEDDQRPSGVPDRFSGSIDTSSNSASLTISGLQSEDEADYYCQSYEPGNGVFGGGTKVTVLAAAESKYGPPCPPCPIYIWAPLAGTCGVLLLSLVITLYCKRGRKKLLYIFKQPFMRPVQTTQEEDGCSCRFPEEEEGGCELRVKFSRSADAPAYQQGQNQLYNELNLGRREEYDVLDKRRGRDPEMGGKPRRKNPQEGLYNELQKDKMAEAYSEIGMKGERRRGKGHDGLYQGLSTATKDTYDALHMQALPPR	binds	–	–	–
